Measured values published in patent EP1313853B1.

Target: Fas (Apo-1, CD95) (human) (UniProt P25445)
Assay: cell-based or functional assay

Sequence of UniProt P25445 (P25445 26-335): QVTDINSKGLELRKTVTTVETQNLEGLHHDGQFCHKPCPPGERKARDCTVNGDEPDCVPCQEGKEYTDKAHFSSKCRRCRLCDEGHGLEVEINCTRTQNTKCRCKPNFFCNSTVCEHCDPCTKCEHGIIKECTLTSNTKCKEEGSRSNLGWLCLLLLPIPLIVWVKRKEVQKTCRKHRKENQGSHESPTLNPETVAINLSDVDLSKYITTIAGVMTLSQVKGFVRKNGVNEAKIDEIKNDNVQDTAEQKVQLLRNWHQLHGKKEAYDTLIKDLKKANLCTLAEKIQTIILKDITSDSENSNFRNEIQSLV

Substance: agonistic anti-Fas monoclonal antibodies (clone CH-11: Coulter-Immunotech, Marseille, France) (antibody)
- % INHIBITION of Jurkat human leukemia T cell proliferation (MTT), 0.02 µg/ml antibody, no sequence: 16%
- % INHIBITION of Jurkat human leukemia T cell proliferation (MTT), 0.2 µg/ml antibody, no sequence: 33%
- % INHIBITION of UMUC-3 bladder cancer cell proliferation (MTT), 0.02 µg/ml antibody, no sequence: 7%
- % INHIBITION of UMUC-3 bladder cancer cell proliferation (MTT), 0.2 µg/ml antibody, no sequence: 17%
